The values below come from article PMC12249575.

The assay addresses EcSofic H194A mutant (Sofic from Escherichia coli H397) (Escherichia coli H397). Put plainly: AUC; sedimentation velocity, 50,000 rpm, 12 °C; samples 0.8 mg/mL in 20 mM Tris-HCl pH 7.5, 100 mM NaCl, 1 mM DTT; SEDFIT.

The stoichiometry N is a count of units in the complex or per binding partner. The substance “EcSofic H194A mutant (Sofic from Escherichia coli H397) (enzyme)” had a stoichiometry N of 2.
